Results on one protein are retold here after publication PMC3665706 (Immunity, 2013).

One may read the stoichiometry N as the number of molecules, sites or subunits per partner or assembly.

This data set deals with the molecule itself. The experiment in a line: SEC-MALS. A general note: Size exclusion chromatography separates by hydrodynamic size, large species first.

B1: N-terminal A20 protein bearing the OTU domain (residues 1-370), wild type (domain or fragment, UniProt P21580 1-370, looked up)
chain: MAEQVLPQALYLSNMRKAVKIRERTPEDIFKPTNGIIHHFKTMHRYTLEMFRTCQFCPQFREIIHKALIDRNIQATLESQKKLNWCREVRKLVALKTNGDGNCLMHATSQYMWGVQDTDLVLRKALFSTLKETDTRNFKFRWQLESLKSQEFVETGLCYDTRNWNDEWDNLIKMASTDTPMARSGLQYNSLEEIHIFVLCNILRRPIIVISDKMLRSLESGSNFAPLKVGGIYLPLHWPAQECYRYPIVLGYDSHHFVPLVTLKDSGPEIRAVPLVNRDRGRFEDLKVHFLTDPENEMKEKLLKEYLMVIEIPVQGWDHGTTHLINAAKLDEANLPKEINLVDDYFELVQHEYKKWQENSEQGRREGHAQ
With B1, the “stoichiometry N” value was found to be 2.
